B1: BBI: polypeptide of 71 amino acids with the ability to inhibit the serine proteases trypsin and chymotrypsin (protein, UniProt P01055 40-110, looked up)
Bowman-Birk type proteinase …: DDESSKPCCDQCACTKSNPPQCRCSDMRLNSCHSACKSCICALSYPAQCFCVDITDFCYEPCKPSEDDKEN
B2: KTI: soy Kunitz Trypsin Inhibitor, a protease inhibitor contained in soybean (protein, UniProt P01070 25-205, looked up)
Trypsin inhibitor A: DFVLDNEGNPLENGGTYYILSDITAFGGIRAAPTGNERCPLTVVQSRNELDKGIGTIISSPYRIRFIAEGHPLSLKFDSFAVIMLCVGIPTEWSVVEDLPEGPAVKIGENKDAMDGWFRLERVSDDEFNNYKLVFCPQQAEDDKCGDIGISIDHDDGTRRLVVSKNKPLVVQFQKLDKESL

Tests used:
[1] = tested on: Ki-67 expression in MDA-MB-231 tumors; test: Immunohistochemical staining of xenograft tumor sections for Ki-67 labeling index; format: in vivo, athymic NCr-nu/nu mice; settings: 20 mg/kg body weight i.p.; tumors collected 7 weeks after cells injection
Method: Sections were evaluated for tumor cell cytology, growth pattern, necrosis and apoptosis. The 5 µm sections were deparaffinized and rehydrated and antigens were retrieved using citrate buffer (pH 6.0) before endogenous peroxidase activity was blocked. Proliferation was shown using an antibody against Ki-67 (MIB-1; DakoCytomation, Glostrup, Denmark, dilution 1∶75). Antigen expression was expressed using streptavidin conjugated to horseradish peroxidase and visualized by diaminobenzidine chromogen reagent (DakoCytomation). All immunohistochemistry slides were examined by light microscopy (Axiophot 381, Zeiss, Germany). Ki-67 labeling index was calculated as percentage of positive cells over total number of cells counted in microscope at 400× magnification.

[2] = tested on: MDA-MB-231 tumor xenografts; test: Breast cancer prevention in MDA-MB-231 xenograft mouse model; format: in vivo, athymic NCr-nu/nu mice
Method: Human MDA-MB-231 breast cancer cells were obtained from ATCC and grown in Leibovitz's L-15 Medium supplemented with 10% FBS, 100 unit/ml penicillin, and 100 µg/ml streptomycin (Invitrogen), in a humidified atmosphere at 37°C.
Mice protocol was approved by ACUC (University of California, Berkeley, CA, USA). Thirty-two six weeks-old athymic NCr-nu/nu mice (National Cancer Institute, Frederick, MD, USA) were acclimatized for 1 week and randomly divided into four groups (n = 8): control group (receiving PBS), BBI-group (receiving BBI at 20 mg/kg body weight), and two lunasin-groups (receiving synthetic lunasin [Chengdu KaiJie Bio-Pharmaceutical Co., Chengdu, P.R. China] at 20 mg/kg body weight and 4 mg/kg body weight). After two months of i.p. treatment three times a week, mice were injected subcutaneously in the right flank with 1×10^7 MDA-MB-231 cells suspended in 0.1 ml of Matrigel Basement Membrane Matrix (Becton Dickinson, Bedford, MA, USA). Tumor growth was monitored by palpation, and the onset when tumors were detectable was noted. Tumor size was measured with calipers, and tumor volume was calculated assuming the shape as ellipsoid. Tumor incidence in percentage was calculated as the number of tumor-bearing mice divided by the total number of mice in each group, whereas tumor generation was calculated as the total number of tumors divided by total number of mice in each group. The volume of the tumor was determined using the following formula: tumor volume = length × width^2 ×0.523 [41].
At the end of the experiment, animals were sacrificed, and tumors were dissected and weighed. Individual tumors were split for fixation in the Shando Glyo-Fixx™ (Thermo Scientific, Pittsburgh, PA, USA) for histological examination. The paraffin-embedded sections were stained with hematoxylin and eosin (H&E).

[3] = tested on: DMBA-induced NIH3T3 cells; test: Foci formation assay in DMBA-induced NIH3T3 cells; format: cell-based; settings: 100 nM peptide; 1.5 µg/ml DMBA; 6 weeks; n = 6
Method: The foci formation assay was performed according to Reznikoff et al. NIH3T3 cells were obtained from American Type Culture Collection (ATCC) and cultured in RPMI 1640 medium supplemented with 10% fetal bovine serum (FBS) (Invitrogen, Carlsbad, CA, USA). Cells were plated at a density of 500 cells/well in 12-well plates, incubated overnight at 37°C and treated with lunasin or BBI for 4 hrs. Then, cells were treated with 1.5 µg/ml DMBA for 20 hrs. After washing with PBS, fresh medium was added. Peptides were added and medium was changed every week for 6 weeks. At the end of experiment, cells were washed with 0.9% NaCl, fixed with methanol, stained with Giemsa, and scored for transformed foci. The negative control was a set of cells receiving no DMBA, while the positive control consisted of cells induced by DMBA but without treatment.

[4] = tested on: Pancreatin from porcine pancreas; test: In vitro digestion of lunasin with pancreatin, with or without protease inhibitors; format: in vitro ADME; settings: inhibitor 18,000 ng, lunasin 600 ng, pancreatin 600 ng, 1 h at 37°C; also after heat denaturation of the inhibitor
Method: Figure 2 Soy-derived BBI and KTI protect synthetic lunasin from in vitro digestion. The upper, lighter bands are Coomassie Blue protein stains and the lower, darker bands are Western blots. (M) Markers, (1) Lunasin (600 ng) + pancreatin (600 ng) incubated for 0 h at 37°C, (2) Lunasin (600 ng) + pancreatin (600 ng) incubated for 1 h at 37°C, (3) Lunasin (600 ng) + BBI (18,000 ng, unboiled) + pancreatin (600 ng) incubated for 1 h at 37°C, (4). Lunasin (600 ng) + KTI (18,000 ng, unboiled) + pancreatin (600 ng) incubated for 1 h at 37°C, (5) Lunasin (600 ng) + BBI (18,000 ng, boiled) + pancreatin (600 ng) incubated for 1 h at 37°C, (6) Lunasin (600 ng)+KTI (18,000 ng, boiled) + pancreatin (600 ng) incubated for 1 h at 37°C, (7) BBI (unboiled), (8) KTI (unboiled).
In vitro digestion of lunasin was carried out following the method published in the United States Pharmacopeia. Synthetic lunasin (American Peptide Company, Inc. Sunnyvale, CA, USA) (5 µg) was incubated with the protease inhibitors BBI or KTI (Sigma, St. Louis, MO, USA) for 30 min at 25°C. Pancreatin from porcine pancreas (Sigma) was added (enzyme∶protein ratio of 1∶10) and solution was incubated at 37°C for 1 h. Tris-tricine sample buffer was added at the end of the reaction and immediately stopped by placing the tubes in a boiling water bath for 5 min. The digests were analyzed by SDS-PAGE and Western-Blot following the protocol previously described.

MDA-MB-231 tumors = test: In situ TUNEL assay for apoptosis in xenograft tumor sections; format: in vivo, athymic NCr-nu/nu mice; settings: lunasin 20 and 4 mg/kg (P = 0.0088, 0.0141 vs control), BBI 20 mg/kg i.p.
Method: In situ terminal deoxynucleotidyl transferase-mediated dUTP nick end labeling (TUNEL) assay was performed using ApopTag Detection Kit (Millipore, USA & Canada) and ran based on the manufacturer's protocol. Briefly, deparaffinized and rehydrated sections were pretreated with 20 µg/mL proteinase K for 15 min and incubated with terminal transferase and digoxigenin dUTP at 37°C for 1 h. After washing, sections were incubated with antidigoxigenin rhodamine (Millipore) and DAPI (Invitrogen), and slides were visualized by fluorescent microscopy (Axiophot 381). The apoptotic cells were calculated as percentage of positive cells over total number of cells counted in microscope at 400× magnification.

Row | Molecule | reduction of Ki-67 expression compared with the control group [1] | tumor incidence (mice showing tumors) ([2]; 20 mg/kg body weight i.p. three times a week, seven weeks post-cells injection, n = 8) [%] | tumor incidence lower compared with the control ([2]; 20 mg/kg body weight i.p., seven weeks post-cells injection) | tumor generation ([2]; 20 mg/kg body weight i.p., versus vehicle-treated group) | body weight ([2]; i.p. three times a week, BBI 20 mg/kg, lunasin 20 and 4 mg/kg body weight, compared among the four groups, n = 8) | reduction of foci formation [3] [%] | protection of lunasin from in vitro digestion with pancreatin [4] | TUNEL-positive apoptotic cells in tumors (MDA-MB-231 tumors)
1 | B1 | no significant difference | 88 | no effect | ineffective | No significant differences | 60 | protect lunasin from digestion | Few TUNEL-positive cells
2 | B2 |  |  |  |  |  |  | protect lunasin from digestion | 

Source: paper PMC2811193, “Complementary Roles in Cancer Prevention: Protease Inhibitor Makes the Cancer Preventive Peptide Lunasin Bioavailable” (PLoS ONE, 2010)
